The target of the experiment is His-tagged mouse Endophilin A1 SH3 domain (mouse) (UniProt Q62420). Nature of the experiment: ELISA; His-tagged mouse Endophilin A1 SH3 domain coated onto a 96-well plate, overlaid with increasing concentrations of GST-tagged Dyn1-PRR peptides; two experiments with four replicates each.
His-tagged mouse Endophilin A1 SH3 domain (mouse), sequence (Q62420 290-349): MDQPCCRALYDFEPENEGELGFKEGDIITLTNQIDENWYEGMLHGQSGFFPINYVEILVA

In turn, “GST-Dyn1xA-PRR 751-798 (domain or fragment)” came in with a fold weaker affinity than xA 746-864 of 9 fold.

For “GST-Dyn1xB-PRR (dynamin 1xB proline-rich region, amino acids 746-851) (domain or fragment)”, the fold lower affinity than xA 746-864 is 3 fold.

The values are drawn from PMC11329700.
